Data on 1 molecule can be found in patent US20170210823A1 (YEDA RESEARCH AND DEVELOPMENT, published 2017).

The target in test [1] is T1, catalytic domain of human LOXL2 (545-775) (human, UniProt Q9Y4K0 545-774).
T1 construct: No vector-derived tag is stated; also called recombinant catalytic domain of LOXL2; catalytic fragment
Briefly: ELISA; plate coated with the catalytic domain of LOXL2, antibody titrated. Here is the method:
(§1) A 96 well plate (Nunc) was coated with LOXL2 or BSA at 5 μg/ml. After the plate was coated, it was incubated with the antibody for 1 h at 25° C. The bound antibody was detected by peroxidase-conjugated antibody goat anti mouse according to standard procedures. The EC₅₀ was calculated from a four-parametric sigmoidal-curve fitting analysis.
(In general: ELISA stands for enzyme-linked immunosorbent assay.)

Test [2] addresses T2, human LOXL2 (full length enzyme) (human, UniProt Q9Y4K0 26-774).
T2 construct: also called lysyl-oxidase like protein-2
T2 sequence: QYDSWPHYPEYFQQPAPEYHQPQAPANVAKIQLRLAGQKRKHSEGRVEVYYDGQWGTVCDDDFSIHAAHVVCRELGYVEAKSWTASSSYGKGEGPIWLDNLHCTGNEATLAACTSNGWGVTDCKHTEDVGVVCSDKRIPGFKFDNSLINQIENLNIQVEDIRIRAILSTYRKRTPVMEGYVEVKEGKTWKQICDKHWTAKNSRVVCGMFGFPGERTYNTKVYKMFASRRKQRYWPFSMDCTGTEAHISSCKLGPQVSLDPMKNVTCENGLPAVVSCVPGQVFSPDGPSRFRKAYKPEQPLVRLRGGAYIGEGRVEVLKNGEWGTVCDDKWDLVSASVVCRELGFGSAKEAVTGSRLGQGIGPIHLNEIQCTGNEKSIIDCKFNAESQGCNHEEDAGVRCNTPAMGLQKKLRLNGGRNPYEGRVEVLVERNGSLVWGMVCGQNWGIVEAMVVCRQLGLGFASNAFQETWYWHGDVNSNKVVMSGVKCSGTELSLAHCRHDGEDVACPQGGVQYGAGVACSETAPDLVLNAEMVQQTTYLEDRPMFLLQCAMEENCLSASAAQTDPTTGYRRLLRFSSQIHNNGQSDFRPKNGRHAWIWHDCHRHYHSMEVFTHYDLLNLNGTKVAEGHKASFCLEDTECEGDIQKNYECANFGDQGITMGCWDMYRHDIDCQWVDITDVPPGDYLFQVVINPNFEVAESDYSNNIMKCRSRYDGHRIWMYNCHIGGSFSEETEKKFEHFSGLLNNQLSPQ
Briefly: microscale thermophoresis in solution; x axis printed as [LOXL2], nM; LOXL2 construct not specified on the sheet or in the legend. (Microscale thermophoresis detects binding through changes in fluorescence in a small temperature gradient.)

For test [3], the target named is T1, catalytic domain of human LOXL2 …. Put plainly: ELISA; plate coated with the catalytic domain of LOXL2, antibody titrated, detection with peroxidase-conjugated goat anti-mouse antibody. As to the method: as §1

B1: GS341 antibody (antibody, V domains shown)
VH: QVQLQQPGAELVRPGASVKLSCKASGYSFTNYWMSWVKQRPGQGLEWIGMIHPSDTDIRLHQKFKDKATLTVDKSSSTAYVQLSSPTSEDSAVYYCARGGQLGPWFAYWGQGTLVTVSA
VL: DIVMTQSPASLAVSLGQRATISCRASKSVSTSGYSYMHWYQQKPGQPPKLLIYLASNLESGVPARFSGSGSGTFTLNIHPVEEEDAATYYCQHSRELPWTFGGGTKLEIKR
notes: also called A341; ab341
Consider B1, for which, in test [1], the EC50 (read off the curve) (as a rule, the midpoint of the concentration-response curve) is around 400 pM. The Kd (usually a measure of binding affinity in units of concentration) in test [2] was 6970 pM. Further, it took 350 pM to reach a half-maximal effect in test [3] (EC50).
